Measurements: paper doi:10.1101/2021.10.11.463904 (bioRxiv, 2021)
Like-named read-outs stand apart in the source and are kept apart here. Ends that are not written are not given here. * marks the point of attachment. FITC = O=C1OC2(c3ccc(O)cc3Oc3cc(O)ccc32)c2ccc(NC(=S)*)cc21; Ahx = NCCCCCC(=O)O

B1: FITC-E-peptide 151-169 (peptide)
peptide: {FITC-Ahx}-EAKRHRPLIVLPPKDPAHG
B2: FITC-E-peptide 103-120 (peptide)
peptide: {FITC-Ahx}-DDFPRYPVGKFFQYDTWR
B3: FITC-E-peptide 92-120 (domain or fragment)
chain: RDVC(FITC‑maleimide)TSQAVLPDDFPRYPVGKFFQYDTWR
B4: E-peptide (domain or fragment)
chain: RDVCTSQAVLPDDFPRYPVGKFFQYDTWRQSAGRLRRGLPALLRARRGRMLAKELKEFREAKRHRPLIVLPPKDPAHGGASSEMSSNHQ
B5: FITC-E-peptide 121-139 (peptide)
peptide: {FITC-Ahx}-QSAGRLRRGLPALLRARRG
B6: FITC-E-peptide 92-139 (domain or fragment)
chain: RDVC(FITC‑maleimide)TSQAVLPDDFPRYPVGKFFQYDTWRQSAGRLRRGLPALLRARRG

How the values were obtained:
[1] = biological target: FITC-Mature-1cys (Mus musculus) (UniProt P09535); assay: fluorescence polarisation
Sequence of FITC-Mature-1cys (Mus musculus) (P09535 25-91): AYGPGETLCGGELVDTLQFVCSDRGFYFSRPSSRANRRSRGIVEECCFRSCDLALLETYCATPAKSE

[2] = biological target: FITC-Mature-1cys (Mus musculus) (UniProt P09535); assay: fluorescence polarisation; remark: listed apart in the source
[3] = biological target: T1, BiP (UniProt P20029 20-655); assay: fluorescence polarisation
T1 sequence (P20029 20-655): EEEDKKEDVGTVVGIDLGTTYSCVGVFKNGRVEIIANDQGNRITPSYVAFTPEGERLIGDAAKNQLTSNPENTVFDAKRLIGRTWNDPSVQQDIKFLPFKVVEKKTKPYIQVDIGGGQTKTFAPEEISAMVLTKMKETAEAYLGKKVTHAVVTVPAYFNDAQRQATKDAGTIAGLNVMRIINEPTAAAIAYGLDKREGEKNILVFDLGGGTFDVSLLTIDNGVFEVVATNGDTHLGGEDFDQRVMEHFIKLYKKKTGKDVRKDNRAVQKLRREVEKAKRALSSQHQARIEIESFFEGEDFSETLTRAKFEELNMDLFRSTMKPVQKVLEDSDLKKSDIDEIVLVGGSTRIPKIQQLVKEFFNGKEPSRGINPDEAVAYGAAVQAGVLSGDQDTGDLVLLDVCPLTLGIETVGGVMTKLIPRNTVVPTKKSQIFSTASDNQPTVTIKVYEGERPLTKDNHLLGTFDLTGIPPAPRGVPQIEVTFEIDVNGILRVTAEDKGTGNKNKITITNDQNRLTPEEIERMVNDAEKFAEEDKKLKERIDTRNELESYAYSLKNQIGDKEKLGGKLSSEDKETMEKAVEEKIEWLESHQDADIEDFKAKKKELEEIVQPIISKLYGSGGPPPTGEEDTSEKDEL

[4] = biological target: T1, BiP; assay: fluorescence polarisation; remark: listed apart in the source
[5] = biological target: T1, BiP; assay: fluorescence polarisation; remark: listed apart in the source
[6] = biological target: BSA (bovine (from the name BSA), UniProt P02769 25-607); assay: fluorescence polarisation
Sequence of BSA (P02769 25-607): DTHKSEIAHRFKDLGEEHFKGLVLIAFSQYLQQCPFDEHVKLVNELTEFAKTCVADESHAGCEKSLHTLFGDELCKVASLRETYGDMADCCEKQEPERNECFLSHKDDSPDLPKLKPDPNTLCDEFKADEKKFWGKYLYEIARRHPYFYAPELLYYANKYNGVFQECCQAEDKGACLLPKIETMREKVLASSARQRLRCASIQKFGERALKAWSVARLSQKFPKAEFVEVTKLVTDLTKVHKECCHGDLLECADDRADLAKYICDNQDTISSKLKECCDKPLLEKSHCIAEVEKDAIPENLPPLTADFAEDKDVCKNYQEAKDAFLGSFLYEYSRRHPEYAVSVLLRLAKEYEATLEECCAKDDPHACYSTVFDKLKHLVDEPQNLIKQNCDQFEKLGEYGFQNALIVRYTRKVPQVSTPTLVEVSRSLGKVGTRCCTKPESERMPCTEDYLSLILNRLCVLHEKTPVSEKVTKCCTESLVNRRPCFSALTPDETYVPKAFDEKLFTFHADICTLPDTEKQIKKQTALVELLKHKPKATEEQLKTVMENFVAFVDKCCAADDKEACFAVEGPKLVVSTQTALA

[7] = biological target: the molecule itself; assay: dynamic light scattering

Molecule	Kd [3]	Kd [5]	also measured
BiP (from UniProt P20029 20-655) (natural protein)	–	–	Kd [1]: 9.7 µM; Kd [2]: 2.7 µM
B1	15 ± 1 µM	–	–
B2	0.95 ± 0.17 µM	13 ± 2 µM	Kd [4]: 0.46 ± 0.05 µM; Kd [6]: 13 ± 2 µM
B3	0.67 ± 0.17 µM	8 ± 3.8 µM	–
B4	–	–	binding result [7]: binds
B5	5.3 ± 0.6 µM	–	–
B6	0.52 ± 0.13 µM	1.9 ± 0.6 µM	–
